Experimental data: PMC5733156, “Heterologous Secretory Expression and Characterization of Dimerized Bone Morphogenetic Protein 2 in Bacillus subtilis” (BioMed Research International, 2017)

Target: the molecule itself
Experiment: native gel or EMSA; 12% native PAGE in nonreducing condition (without SDS and β-mercaptoethanol), samples not boiled; monomer chain to dimer (the paper calls it disulfide linked)

B1: recombinant human Bone Morphogenetic Protein 2 (rhBMP2) monomer, from pHT43-BMP2-M (ligand, UniProt P12643 283-396, looked up)
chain: QAKHKQRKRLKSSCKRHPLYVDFSDVGWNDWIVAPPGYHAFYCHGECPFPLADHLNSTNHAIVQTLVNSVNSKIPKACCVPTELSAISMLYLDENEKVVLKNYQDMVVEGCGCR
notes: Bone Morphogenetic Protein 2, human, mature domain / mature peptide (~399 bp amplicon with sites and His-tag); RBMP2-M, translated, gives ...EGCGCR then GRG then HHHHHH and stop, so three residues (GRG) may lie between BMP2 and the His-tag; also called rhBMP (monomer); source: B. subtilis SCK6, secreted into the culture supernatant (pHT43, amyQ signal peptide); purified by FPLC (Resource Q)
- stoichiometry N: 2
